The values that follow come from patent publication US20180044401A1.

For test [1], the target named is IgG-Fc of anti-TNFα monoclonal antibody (Remicade). Description: SPR Biacore, Fc immobilized at about 10000 RU, response 1 minute after addition.
The target in test [2] is IgG-Fab prepared from anti-TNFα monoclonal antibody (Remicade). The test can be described thus: SPR Biacore, Fab immobilized at about 10000 RU, response 1 minute after addition.

Regarding “peptide having the amino acid sequence of β1 domain of Protein G (SEQ ID NO: 32) (from UniProt P06654 228-282)”, the figures for the inclination of approximate curve (binding response against peptide concentration) in test [1] and in test [2] were 0.9 and 0.1, respectively.
